Measured values reported in patent US20140242080A1 (Hoffmann-La Roche, published 2014).

T1: human CEA expressed on tumor cells (LS-174T, A549-huCEA, MKN-45, MC38-huCEA, HPAFII, BxPC-3, ASPC-1) (human, UniProt P06731 35-685)
T1 sequence (looked up): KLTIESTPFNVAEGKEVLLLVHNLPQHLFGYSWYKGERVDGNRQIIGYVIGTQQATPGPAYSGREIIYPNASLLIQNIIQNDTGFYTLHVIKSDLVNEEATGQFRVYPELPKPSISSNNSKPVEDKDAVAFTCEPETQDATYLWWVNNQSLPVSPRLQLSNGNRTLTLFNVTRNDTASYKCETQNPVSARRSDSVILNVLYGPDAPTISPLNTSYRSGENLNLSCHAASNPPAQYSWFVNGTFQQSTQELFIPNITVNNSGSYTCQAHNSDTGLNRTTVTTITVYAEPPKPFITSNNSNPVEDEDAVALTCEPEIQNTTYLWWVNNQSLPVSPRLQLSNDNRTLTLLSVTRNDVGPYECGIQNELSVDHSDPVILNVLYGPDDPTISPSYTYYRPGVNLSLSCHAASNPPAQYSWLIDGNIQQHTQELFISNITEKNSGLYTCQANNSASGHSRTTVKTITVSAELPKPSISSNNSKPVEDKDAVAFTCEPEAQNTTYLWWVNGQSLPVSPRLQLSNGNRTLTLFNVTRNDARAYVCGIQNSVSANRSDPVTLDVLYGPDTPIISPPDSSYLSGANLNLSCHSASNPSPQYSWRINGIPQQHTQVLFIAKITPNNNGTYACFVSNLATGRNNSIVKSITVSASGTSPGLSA

T2: human NABA-avi-his (human)
T2 construct: Chimeric antigen with a C-terminal avi 6his tag; also called recombinant tumor target antigen
T2 chain: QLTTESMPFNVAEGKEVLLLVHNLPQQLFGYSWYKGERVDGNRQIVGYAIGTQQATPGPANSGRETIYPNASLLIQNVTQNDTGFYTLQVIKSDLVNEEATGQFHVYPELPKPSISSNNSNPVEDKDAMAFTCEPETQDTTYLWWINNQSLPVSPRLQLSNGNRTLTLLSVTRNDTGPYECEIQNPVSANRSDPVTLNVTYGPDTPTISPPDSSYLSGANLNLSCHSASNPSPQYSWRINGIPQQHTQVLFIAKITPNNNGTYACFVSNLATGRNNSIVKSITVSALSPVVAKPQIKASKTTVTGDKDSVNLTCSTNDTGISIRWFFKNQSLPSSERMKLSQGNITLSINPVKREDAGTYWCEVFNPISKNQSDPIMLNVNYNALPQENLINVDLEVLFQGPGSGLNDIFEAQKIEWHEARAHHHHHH

B1: 2 + 1 IgG Crossfab, inverted; CL/CH1 exchange (CH1A1A/V9) (anti-CEA/anti-huCD3) (bispecific antibody)
chain 1: QVQLVQSGAEVKKPGASVKVSCKASGYTFTEFGMNWVRQAPGQGLEWMGWINTKTGEATYVEEFKGRVTFTTDTSTSTAYMELRSLRSDDTAVYYCARWDFAYYVEAMDYWGQGTTVTVSSASTKGPSVFPLAPSSKSTSGGTAALGCLVKDYFPEPVTVSWNSGALTSGVHTFPAVLQSSGLYSLSSVVTVPSSSLGTQTYICNVNHKPSNTKVDKKVEPKSCDKTHTCPPCPAPEAAGGPSVFLFPPKPKDTLMISRTPEVTCVVVDVSHEDPEVKFNWYVDGVEVHNAKTKPREEQYNSTYRVVSVLTVLHQDWLNGKEYKCKVSNKALGAPIEKTISKAKGQPREPQVCTLPPSRDELTKNQVSLSCAVKGFYPSDIAVEWESNGQPENNYKTTPPVLDSDGSFFLVSKLTVDKSRWQQGNVFSCSVMHEALHNHYTQKSLSLSPGK
chain 2: DIQMTQSPSSLSASVGDRVTITCKASAAVGTYVAWYQQKPGKAPKLLIYSASYRKRGVPSRFSGSGSGTDFTLTISSLQPEDFATYYCHQYYTYPLFTFGQGTKLEIKRTVAAPSVFIFPPSDEQLKSGTASVVCLLNNFYPREAKVQWKVDNALQSGNSQESVTEQDSKDSTYSLSSTLTLSKADYEKHKVYACEVTHQGLSSPVTKSFNRGEC
chain 3: DIQMTQSPSSLSASVGDRVTITCRASQDIRNYLNWYQQKPGKAPKLLIYYTSRLESGVPSRFSGSGSGTDYTLTISSLQPEDFATYYCQQGNTLPWTFGQGTKVEIKSSASTKGPSVFPLAPSSKSTSGGTAALGCLVKDYFPEPVTVSWNSGALTSGVHTFPAVLQSSGLYSLSSVVTVPSSSLGTQTYICNVNHKPSNTKVDKKVEPKSC
chain 4: not shown
notes: also called CL/CH1-exchange construct
B2: CEA TCB (2+1 Crossfab-IgG P329G LALA inverted) (bispecific antibody)
chain 1: DIQMTQSPSSLSASVGDRVTITCKASAAVGTYVAWYQQKPGKAPKLLIYSASYRKRGVPSRFSGSGSGTDFTLTISSLQPEDFATYYCHQYYTYPLFTFGQGTKLEIKRTVAAPSVFIFPPSDEQLKSGTASVVCLLNNFYPREAKVQWKVDNALQSGNSQESVTEQDSKDSTYSLSSTLTLSKADYEKHKVYACEVTHQGLSSPVTKSFNRGEC
chain 2: QAVVTQEPSLTVSPGGTVTLTCGSSTGAVTTSNYANWVQEKPGQAFRGLIGGTNKRAPGTPARFSGSLLGGKAALTLSGAQPEDEAEYYCALWYSNLWVFGGGTKLTVLSSASTKGPSVFPLAPSSKSTSGGTAALGCLVKDYFPEPVTVSWNSGALTSGVHTFPAVLQSSGLYSLSSVVTVPSSSLGTQTYICNVNHKPSNTKVDKKVEPKSC
chain 3: not shown
chain 4: QVQLVQSGAEVKKPGASVKVSCKASGYTFTEFGMNWVRQAPGQGLEWMGWINTKTGEATYVEEFKGRVTFTTDTSTSTAYMELRSLRSDDTAVYYCARWDFAYYVEAMDYWGQGTTVTVSSASTKGPSVFPLAPSSKSTSGGTAALGCLVKDYFPEPVTVSWNSGALTSGVHTFPAVLQSSGLYSLSSVVTVPSSSLGTQTYICNVNHKPSNTKVDKKVEPKSCDKTHTCPPCPAPEAAGGPSVFLFPPKPKDTLMISRTPEVTCVVVDVSHEDPEVKFNWYVDGVEVHNAKTKPREEQYNSTYRVVSVLTVLHQDWLNGKEYKCKVSNKALGAPIEKTISKAKGQPREPQVCTLPPSRDELTKNQVSLSCAVKGFYPSDIAVEWESNGQPENNYKTTPPVLDSDGSFFLVSKLTVDKSRWQQGNVFSCSVMHEALHNHYTQKSLSLSPGK
notes: CH1A1A 98/99 2F1 as anti-CEA and humanized CH2527 as anti-CD3 antibody; also called CEA TCB antibody
B3: 2 + 1 IgG Crossfab, inverted; VL/VH exchange (CH1A1A/V9) (anti-CEA/anti-huCD3) (bispecific antibody)
chain 1: EVQLVESGGGLVQPGGSLRLSCAASGYSFTGYTMNWVRQAPGKGLEWVALINPYKGVSTYNQKFKDRFTISVDKSKNTAYLQMNSLRAEDTAVYYCARSGYYGDSDWYFDVWGQGTLVTVSSASVAAPSVFIFPPSDEQLKSGTASVVCLLNNFYPREAKVQWKVDNALQSGNSQESVTEQDSKDSTYSLSSTLTLSKADYEKHKVYACEVTHQGLSSPVTKSFNRGEC
chain 2: not shown
chain 3: QVQLVQSGAEVKKPGASVKVSCKASGYTFTEFGMNWVRQAPGQGLEWMGWINTKTGEATYVEEFKGRVTFTTDTSTSTAYMELRSLRSDDTAVYYCARWDFAYYVEAMDYWGQGTTVTVSSASTKGPSVFPLAPSSKSTSGGTAALGCLVKDYFPEPVTVSWNSGALTSGVHTFPAVLQSSGLYSLSSVVTVPSSSLGTQTYICNVNHKPSNTKVDKKVEPKSCDKTHTCPPCPAPEAAGGPSVFLFPPKPKDTLMISRTPEVTCVVVDVSHEDPEVKFNWYVDGVEVHNAKTKPREEQYNSTYRVVSVLTVLHQDWLNGKEYKCKVSNKALGAPIEKTISKAKGQPREPQVCTLPPSRDELTKNQVSLSCAVKGFYPSDIAVEWESNGQPENNYKTTPPVLDSDGSFFLVSKLTVDKSRWQQGNVFSCSVMHEALHNHYTQKSLSLSPGK
chain 4: DIQMTQSPSSLSASVGDRVTITCKASAAVGTYVAWYQQKPGKAPKLLIYSASYRKRGVPSRFSGSGSGTDFTLTISSLQPEDFATYYCHQYYTYPLFTFGQGTKLEIKRTVAAPSVFIFPPSDEQLKSGTASVVCLLNNFYPREAKVQWKVDNALQSGNSQESVTEQDSKDSTYSLSSTLTLSKADYEKHKVYACEVTHQGLSSPVTKSFNRGEC
notes: also called VL/VH-exchange construct

Columns and labels:
[1] = molecular target: T1, human CEA expressed on tumor cells …; assay: cell-based or functional assay
[2] = molecular target: T3, human CD3 expressed on Jurkat cells (human, UniProt P07766 23-207); assay: flow cytometry on Jurkat cells
T3 construct: CD3 complex on Jurkat T cells; also called CD3 on Jurkat cells; huCD3
T3 sequence (P07766 23-207 limits assumed): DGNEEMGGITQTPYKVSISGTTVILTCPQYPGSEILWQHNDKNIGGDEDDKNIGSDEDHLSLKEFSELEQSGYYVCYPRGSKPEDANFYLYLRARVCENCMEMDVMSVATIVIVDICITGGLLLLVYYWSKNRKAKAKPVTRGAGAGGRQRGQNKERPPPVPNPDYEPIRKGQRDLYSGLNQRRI

[3] = molecular target: T1, human CEA expressed on tumor cells …; assay: flow cytometry on LS-174T cells
Description: Binding of the different bispecific constructs to CD3 on Jurkat cells (ATCC #TIB-152), and the respective tumor antigen on target cells, was determined by FACS. Briefly, cells were harvested, counted and checked for viability. 0.15-0.2 million cells per well (in PBS containing 0.1% BSA; 90 μl) were plated in a round-bottom 96-well plate and incubated with the indicated concentration of the bispecific constructs and corresponding IgG controls (10 μl) for 30 min at 4° C. […] After the incubation, cells were centrifuged (5 min, 350×g), washed with 150 μl PBS containing 0.1% BSA, resuspended and incubated for further 30 min at 4° C. with 12 μl/well of a FITC- or PE-conjugated secondary antibody. Bound constructs were detected using a FACSCantoII (Software FACS Diva). The “(scFv)₂” molecule was detected using a FITC-conjugated anti-His antibody (Lucerna, #RHIS-45F-Z). […] EC50 values were calculated using the GraphPad Prism software.
As a control, the equivalent maximum concentration of the corresponding IgGs and the background staining due to the labeled 2ndary antibody (goat anti-human FITC-conjugated AffiniPure F(ab′)2 Fragment, FcγFragment-specific, Jackson Immuno Research Lab #109-096-098) were assessed as well.

[4] = molecular target: T1, human CEA expressed on tumor cells …; assay: cell-based or functional assay; remark: listed apart in the source
[5] = molecular target: T1, human CEA expressed on tumor cells …; assay: flow cytometry on A549-huCEA cells
Description: Briefly, cells were harvested, counted, checked for viability and resuspended at 2×10⁶ cells/ml in FACS buffer (100 μl PBS 0.1% BSA).

human NABA-avi-his [6] = molecular target: T2, human NABA-avi-his; assay: SPR Biacore T100, 25 C; t1/2 = ln 2/koff
Description: (§1) Surface plasmon resonance (SPR) experiments were performed on a Biacore T100 at 25° C. with HBS-EP as running buffer (0.01 M HEPES pH 7.4, 0.15 M NaCl, 3 mM EDTA, 0.005% Surfactant P20, Biacore, Freiburg/Germany).
(§2) Kinetic constants were derived using the Biacore T200 Evaluation Software (vAA, Biacore AB, Uppsala/Sweden), to fit rate equations for 1:1 Langmuir binding by numerical integration. The half-life (t_{1/2}) of the interaction was calculated using following formula: t_{1/2}=ln 2/koff.

[7] = molecular target: T4, human CD3ε stalk-Fc (knob)-Avi/CD3δ-stalk-Fc(hole) (human); assay: SPR Biacore T100, 25 C; t1/2 = ln 2/koff
T4 construct: also called Human CD3ε/CD3δ; recombinant CD3ε/CD3δ
T4 sequence (chain, as listed by the source mutant limits assumed, chain 1 of 2): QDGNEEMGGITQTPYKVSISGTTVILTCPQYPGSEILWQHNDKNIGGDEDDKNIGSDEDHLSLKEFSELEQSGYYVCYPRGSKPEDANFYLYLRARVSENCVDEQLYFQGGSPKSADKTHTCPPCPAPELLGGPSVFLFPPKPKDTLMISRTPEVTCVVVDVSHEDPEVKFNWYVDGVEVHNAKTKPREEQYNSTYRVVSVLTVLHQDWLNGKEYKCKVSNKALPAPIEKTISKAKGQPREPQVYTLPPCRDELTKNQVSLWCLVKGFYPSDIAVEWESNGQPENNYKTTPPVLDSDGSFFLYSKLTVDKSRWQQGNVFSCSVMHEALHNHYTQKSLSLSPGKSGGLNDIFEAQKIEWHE
T4 sequence (chain, as listed by the source mutant limits assumed, chain 2 of 2): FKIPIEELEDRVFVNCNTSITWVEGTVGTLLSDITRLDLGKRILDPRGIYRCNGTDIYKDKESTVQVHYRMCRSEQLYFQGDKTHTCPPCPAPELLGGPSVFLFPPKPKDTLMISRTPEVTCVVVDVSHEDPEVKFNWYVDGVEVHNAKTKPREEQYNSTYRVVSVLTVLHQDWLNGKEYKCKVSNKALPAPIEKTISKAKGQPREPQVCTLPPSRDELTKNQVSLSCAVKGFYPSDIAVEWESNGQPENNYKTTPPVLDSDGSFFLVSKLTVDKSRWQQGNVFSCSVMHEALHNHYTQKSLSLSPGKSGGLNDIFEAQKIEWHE
Description: as §1, §2

human NABA-avi-his [8] = molecular target: T2, human NABA-avi-his; assay: SPR Biacore T100, 25 C; TCB captured via anti-human Fab, antigen as analyte
[9] = molecular target: T4, human CD3ε stalk-Fc …; assay: as above

Binder | EC50 of T cell-mediated killing (LDH release), LS-174T cells, human PBMCs E:T 10:1, 28 h [1] [nM] | EC50 of T cell-mediated killing (LDH release), MKN-45 cells, human PBMCs E:T 10:1, 28 h [1] [nM] | EC50 [2] [nM] | EC50 [3] [nM] | EC50 of T cell-mediated killing (LDH release), A549-hCEA cells, cynomolgus PBMCs E:T 10:1, 40 h [1] [nM] | EC50 of T cell-mediated killing (LDH release), A549-hCEA cells, human PBMCs E:T 10:1, 40 h [1] [nM] | EC50 [pM] 48 h of T-cell mediated killing (LDH release), ASPC1 cells, human PBMCs E:T 10:1 [4] [pM] | EC50 [pM] 48 h of T-cell mediated killing (LDH release), BxPC-3 cells, human PBMCs E:T 10:1 [4] [pM] | EC50 [pM] 48 h of T-cell mediated killing (LDH release), HPAFII cells, human PBMCs E:T 10:1 [4] [pM] | EC50 [5] [nM] | t1/2 (human NABA-avi-his [6]) [min] | t1/2 [7] [min] | Kd (human NABA-avi-his [8]) [nM] | koff (human NABA-avi-his [8]) [s⁻¹] | kon (human NABA-avi-his [8]) [M⁻¹ s⁻¹] | Kd [9] [nM] | koff [9] [s⁻¹] | kon [9] [M⁻¹ s⁻¹]
B1 | 0.673 | 0.115 | 3.9 | 6.7 | – | – | – | – | – | – | – | – | – | – | – | – | – | –
B2 | – | – | – | – | 0.102 | 0.306 | 846 | 3780 | 667 | 6.6 | 5.3 | 5.7 | 62.4 | 0.00218 | 34900 | 75.3 | 0.00203 | 26900
B3 | 0.955 | 0.243 | 4.6 | 9.3 | – | – | – | – | – | – | – | – | – | – | – | – | – | –
